For assay [1], the target named is human α-CGRP F37A (25-37) (human). In words: SPR (Biacore), 25 °C, Fab over peptide on SA chip; KD of mutant over KD of parent 25-37. Background: In SPR one partner is held on a chip, and binding of the other changes the refractive index at the surface.
Assay [2] concerns the target human α-CGRP G33A (25-37) (human). The assay is described as above.
The target of assay [3] is human α-CGRP P29A (25-37) (human). Described as above.
The target of assay [4] is human α-CGRP S34A (25-37) (human). The description is as above.
For assay [5], the target named is human α-CGRP T30A (25-37) (human). Described as above.
For assay [6], the target named is human α-CGRP N31A (25-37) (human). The description is as above.
Assay [7] deals with human α-CGRP V32A (25-37) (human). The description is as above.
In assay [8] the target is human α-CGRP K35A (19-37) (human). In words: SPR (Biacore), 25 °C, Fab over peptide on SA chip; KD of mutant over KD of parent 19-37.

As for “murine anti-CGRP monoclonal antibody 7E9, Fab fragment”, the KD (mutant/parent) was found to be 3600 in assay [1]; 1260 in assay [2]; 26 in assay [3]; 69 in assay [4]; 7 in assay [5]; 9 in assay [6]. For the same substance, the results for the KD (mutant/parent) in assay [7] and in assay [8] were 41 and 4, respectively.

For the origin of these results see patent US20220098287A1.
